For orientation: EC50 means the midpoint of the concentration-response curve. A word on the IC50: it is the concentration that gives 50% inhibition.

Experiment [1] concerns the target African green monkey αvβ6 integrin on 12MBr6 cells (African green monkey). Description: flow cytometry titration on 12MBr6 cells; given as ED50; the text gives the cell lines the other way round than the table.
Experiment [2] deals with rhesus monkey αvβ6 integrin on 4MBr5 cells (rhesus monkey) (UniProt H9ETF2). Description: flow cytometry titration on 4MBr5 cells; given as ED50. On the technique in general: Flow cytometry measures light scatter and fluorescence of single cells or particles in a stream.
Experiment [3] shares this target. Briefly: flow cytometry titration on 4MBr5 cells; given as ED50; the text gives the cell lines the other way round than the table.
The target of experiment [4] is human αvβ6 integrin on cells (human) (UniProt P06756). Description: cell adhesion assay: Detroit562 cells to LAP, inhibition by m3G9.
human αvβ6 integrin on cells (human), sequence (P06756 31-1048, chain 1 of 2): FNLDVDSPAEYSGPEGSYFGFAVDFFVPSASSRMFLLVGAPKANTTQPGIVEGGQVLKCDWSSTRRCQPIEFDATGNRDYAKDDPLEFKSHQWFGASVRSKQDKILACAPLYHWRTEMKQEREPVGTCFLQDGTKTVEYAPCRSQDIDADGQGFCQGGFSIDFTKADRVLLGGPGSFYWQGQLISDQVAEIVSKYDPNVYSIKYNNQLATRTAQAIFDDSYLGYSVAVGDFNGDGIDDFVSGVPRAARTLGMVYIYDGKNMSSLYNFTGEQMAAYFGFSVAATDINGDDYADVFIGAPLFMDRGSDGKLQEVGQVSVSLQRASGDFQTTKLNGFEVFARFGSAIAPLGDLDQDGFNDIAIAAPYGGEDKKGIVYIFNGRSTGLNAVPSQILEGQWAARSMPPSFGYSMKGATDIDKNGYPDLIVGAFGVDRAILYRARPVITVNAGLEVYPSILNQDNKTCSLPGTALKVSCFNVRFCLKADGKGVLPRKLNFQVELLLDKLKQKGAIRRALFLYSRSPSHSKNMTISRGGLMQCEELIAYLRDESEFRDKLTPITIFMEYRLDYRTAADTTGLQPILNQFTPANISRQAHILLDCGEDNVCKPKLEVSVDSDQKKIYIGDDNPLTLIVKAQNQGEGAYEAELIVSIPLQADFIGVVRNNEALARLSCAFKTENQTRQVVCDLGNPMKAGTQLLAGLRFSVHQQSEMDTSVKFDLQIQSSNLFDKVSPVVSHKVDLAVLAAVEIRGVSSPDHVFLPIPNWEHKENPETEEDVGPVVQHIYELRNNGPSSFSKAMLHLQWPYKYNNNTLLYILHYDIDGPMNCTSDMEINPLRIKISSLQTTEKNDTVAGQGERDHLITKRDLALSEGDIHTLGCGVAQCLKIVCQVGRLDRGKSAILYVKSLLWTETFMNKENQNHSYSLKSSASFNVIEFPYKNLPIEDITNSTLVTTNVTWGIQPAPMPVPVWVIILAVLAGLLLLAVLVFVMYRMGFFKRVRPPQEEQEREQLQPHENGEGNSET
human αvβ6 integrin on cells (human), sequence (P18564 22-788, chain 2 of 2, further chain): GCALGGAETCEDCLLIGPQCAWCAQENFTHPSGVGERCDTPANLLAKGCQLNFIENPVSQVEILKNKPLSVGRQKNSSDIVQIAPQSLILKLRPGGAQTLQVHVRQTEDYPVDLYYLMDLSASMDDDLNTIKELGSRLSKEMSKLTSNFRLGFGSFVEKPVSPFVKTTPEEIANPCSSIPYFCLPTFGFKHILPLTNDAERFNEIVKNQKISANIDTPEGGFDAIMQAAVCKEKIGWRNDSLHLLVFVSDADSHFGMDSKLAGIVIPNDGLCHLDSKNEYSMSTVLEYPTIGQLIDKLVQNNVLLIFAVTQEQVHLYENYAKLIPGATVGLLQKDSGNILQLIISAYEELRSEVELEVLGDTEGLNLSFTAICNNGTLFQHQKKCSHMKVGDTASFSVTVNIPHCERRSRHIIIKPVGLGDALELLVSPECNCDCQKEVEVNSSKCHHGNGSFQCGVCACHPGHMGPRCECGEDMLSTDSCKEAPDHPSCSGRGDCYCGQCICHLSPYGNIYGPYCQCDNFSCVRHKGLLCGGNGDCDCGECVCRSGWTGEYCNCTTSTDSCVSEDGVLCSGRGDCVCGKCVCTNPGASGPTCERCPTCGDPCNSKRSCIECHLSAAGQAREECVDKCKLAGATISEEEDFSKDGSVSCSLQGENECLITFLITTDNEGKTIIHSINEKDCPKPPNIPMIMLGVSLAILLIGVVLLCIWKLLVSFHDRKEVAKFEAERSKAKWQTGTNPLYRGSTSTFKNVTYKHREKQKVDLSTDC
Experiment [5] has the same target. Description: cell adhesion assay: SCC-14 cells to LAP, inhibition by m3G9.
Experiment [6] deals with African green monkey αvβ6 integrin on 12MBr6 cells (African green monkey). Briefly: flow cytometry titration on 12MBr6 cells; given as ED50.
Experiment [7] has as its target human αvβ6 integrin on cells (human) (UniProt P06756). Briefly: cell-based or functional assay.
In experiment [8] the target is rhesus monkey αvβ6 integrin on 4MBr5 cells (rhesus monkey) (UniProt H9ETF2). Briefly: cell-based or functional assay.
Experiment [9] has the same target. Description: cell adhesion assay: 4MBr5 cells to LAP; the text gives the cell lines the other way round than the table.
For experiment [10] the target is unchanged. Description: cell adhesion assay: labelled 4MBr5 cells on LAP-coated plate, inhibition by m3G9.
Experiment [11] deals with African green monkey αvβ6 integrin on 12MBr6 cells (African green monkey). Briefly: cell adhesion assay: labelled 12MBr6 cells on LAP-coated plate, inhibition by m3G9.
Experiment [12] addresses human αvβ6 integrin on cells (human) (UniProt P06756). Description: cell adhesion assay: SW480β6 cells to LAP, inhibition by m3G9.
For experiment [13], the target named is African green monkey αvβ6 integrin on 12MBr6 cells (African green monkey). Briefly: cell adhesion assay: 12MBr6 cells to LAP; the text gives the cell lines the other way round than the table.
The next experiment deals with αvβ6 (UniProt P06756). Description: binding ELISA; murine secondary. Background: ELISA stands for enzyme-linked immunosorbent assay.
αvβ6, sequence (P06756 31-992, chain 1 of 2): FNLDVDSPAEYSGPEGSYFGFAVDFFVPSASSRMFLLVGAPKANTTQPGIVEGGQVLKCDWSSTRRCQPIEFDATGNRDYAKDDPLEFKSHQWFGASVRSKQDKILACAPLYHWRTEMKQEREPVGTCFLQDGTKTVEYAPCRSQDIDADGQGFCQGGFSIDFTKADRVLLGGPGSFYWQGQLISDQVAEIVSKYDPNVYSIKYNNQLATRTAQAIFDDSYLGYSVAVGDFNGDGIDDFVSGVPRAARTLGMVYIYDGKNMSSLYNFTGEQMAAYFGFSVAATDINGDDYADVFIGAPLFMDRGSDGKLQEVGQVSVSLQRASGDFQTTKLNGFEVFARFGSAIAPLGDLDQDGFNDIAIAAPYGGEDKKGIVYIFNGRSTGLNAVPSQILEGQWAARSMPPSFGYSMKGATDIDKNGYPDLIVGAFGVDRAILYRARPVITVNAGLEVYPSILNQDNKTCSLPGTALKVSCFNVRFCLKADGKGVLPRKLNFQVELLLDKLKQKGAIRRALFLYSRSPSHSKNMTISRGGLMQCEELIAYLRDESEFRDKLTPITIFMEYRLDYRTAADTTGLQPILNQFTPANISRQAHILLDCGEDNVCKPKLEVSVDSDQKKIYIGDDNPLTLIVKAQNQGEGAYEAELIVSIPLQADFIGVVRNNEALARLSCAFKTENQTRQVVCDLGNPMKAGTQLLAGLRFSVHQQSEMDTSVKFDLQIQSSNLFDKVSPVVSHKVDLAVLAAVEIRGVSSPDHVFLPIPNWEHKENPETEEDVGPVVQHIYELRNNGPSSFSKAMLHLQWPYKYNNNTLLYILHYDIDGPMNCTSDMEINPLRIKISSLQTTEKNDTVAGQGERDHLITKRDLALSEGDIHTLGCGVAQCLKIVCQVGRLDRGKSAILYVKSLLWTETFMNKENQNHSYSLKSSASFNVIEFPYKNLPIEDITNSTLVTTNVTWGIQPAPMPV
αvβ6, sequence (P18564 22-709, chain 2 of 2, further chain): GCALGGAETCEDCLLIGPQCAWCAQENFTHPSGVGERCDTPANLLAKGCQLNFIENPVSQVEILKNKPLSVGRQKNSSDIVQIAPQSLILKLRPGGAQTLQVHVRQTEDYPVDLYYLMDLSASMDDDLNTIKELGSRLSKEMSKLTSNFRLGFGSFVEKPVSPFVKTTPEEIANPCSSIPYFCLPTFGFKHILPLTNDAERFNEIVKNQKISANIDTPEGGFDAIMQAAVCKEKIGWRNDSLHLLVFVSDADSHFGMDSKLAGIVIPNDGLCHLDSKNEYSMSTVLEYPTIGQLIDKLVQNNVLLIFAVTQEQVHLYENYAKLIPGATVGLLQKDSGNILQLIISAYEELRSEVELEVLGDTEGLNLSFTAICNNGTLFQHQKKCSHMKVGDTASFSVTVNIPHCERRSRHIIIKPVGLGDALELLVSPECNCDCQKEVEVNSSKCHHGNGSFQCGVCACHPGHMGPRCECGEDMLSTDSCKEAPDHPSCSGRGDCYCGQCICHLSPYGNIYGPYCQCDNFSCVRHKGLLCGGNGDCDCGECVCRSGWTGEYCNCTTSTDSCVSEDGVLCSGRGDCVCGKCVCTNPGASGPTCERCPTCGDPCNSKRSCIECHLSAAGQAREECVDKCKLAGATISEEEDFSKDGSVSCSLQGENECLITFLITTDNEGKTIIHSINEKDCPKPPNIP

On to murine monoclonal antibody 6.3G9, for which the EC50 in [1] was determined as 0.3 µg/mL; in experiment [2], 0.3 µg/mL; in experiment [3], 0.38 µg/mL; in experiment [6], 0.38 µg/mL. Moreover, the 50% inhibitory concentration (IC50) was 0.04 µg/mL in experiment [4]; 0.16 µg/mL in experiment [5]; 0.29 µg/mL in experiment [9]; 0.22 µg/mL in experiment [10]; 0.29 µg/mL in [11]; 0.03 µg/mL in [12]. Further, the half-inhibitory concentration (IC50) in experiment [13] was 0.22 µg/mL. The substance further had a Coculture IC50, µg/mL (TGFβ activation by SW480β6 cells, TMLC luciferase reporter cells) in experiment [7] of 0.37 µg/mL. The substance also displayed an IC50, coculture assay (SW480β6) in experiment [7] of 0.24 µg/mL. Also, the Coculture IC50, µg/mL (TGFβ activation by 4MBr5 cells, TMLC luciferase reporter cells) in [8] was found to be 0.31 µg/mL. This substance also gave an IC50, coculture assay (4MBr5) in experiment [8] of 0.4 µg/mL.
In turn, m3G9 (murine secondary) registered a half-maximal effective concentration (EC50) with αvβ6 of 0.021 µg/mL.

(Values after patent US20110305629A1.)
